PMC8298264, “Function of cofactor Akirin2 in the regulation of gene expression in model human neutrophil-like HL60 cells” (Bioscience Reports, 2021)

B1: Protein Churchill (protein, UniProt Q8WUH1 1-112, looked up)
Protein Churchill: MCGDCVEKEYPNRGNTCLENGSFLLNFTGCAVCSKRDFMLITNKSLKEEDGEEIVTYDHLCKNCHHVIARHEYTFSIMDEFQEYTMLCLLCGKAEDTISILPDDPRQMTLLF
B2: Peroxiredoxin-2 (protein, UniProt P32119 2-198, looked up)
Peroxiredoxin-2: ASGNARIGKPAPDFKATAVVDGAFKEVKLSDYKGKYVVLFFYPLDFTFVCPTEIIAFSNRAEDFRKLGCEVLGVSVDSQFTHLAWINTPRKEGGLGPLNIPLLADVTRRLSEDYGVLKTDEGIAYRGLFIIDGKGVLRQITVNDLPVGRSVDEALRLVQAFQYTDEHGEVCPAGWKPGSDTIKPNVDDSKEYFSKHN
B3: sp¦Q8WU90¦ZC3HF_HUMAN (protein, UniProt Q8WU90 1-426, looked up)
Zinc finger CCCH …: MPPKKQAQAGGSKKAEQKKKEKIIEDKTFGLKNKKGAKQQKFIKAVTHQVKFGQQNPRQVAQSEAEKKLKKDDKKKELQELNELFKPVVAAQKISKGADPKSVVCAFFKQGQCTKGDKCKFSHDLTLERKCEKRSVYIDARDEELEKDTMDNWDEKKLEEVVNKKHGEAEKKKPKTQIVCKHFLEAIENNKYGWFWVCPGGGDICMYRHALPPGFVLKKDKKKEEKEDEISLEDLIERERSALGPNVTKITLESFLAWKKRKRQEKIDKLEQDMERRKADFKAGKALVISGREVFEFRPELVNDDDEEADDTRYTQGTGGDEVDDSVSVNDIDLSLYIPRDVDETGITVASLERFSTYTSDKDENKLSEASGGRAENGERSDLEEDNEREGTENGAIDAVPVDENLFTGEDLDELEEELNTLDLEE
B4: sp¦Q92945¦FUBP2_HUMAN (protein, UniProt Q92945 2-711, looked up)
Far upstream element-binding …: SDYSTGGPPPGPPPPAGGGGGAGGAGGGPPPGPPGAGDRGGGGPGGGGPGGGSAGGPSQPPGGGGPGIRKDAFADAVQRARQIAAKIGGDAATTVNNSTPDFGFGGQKRQLEDGDQPESKKLASQGDSISSQLGPIHPPPRTSMTEEYRVPDGMVGLIIGRGGEQINKIQQDSGCKVQISPDSGGLPERSVSLTGAPESVQKAKMMLDDIVSRGRGGPPGQFHDNANGGQNGTVQEIMIPAGKAGLVIGKGGETIKQLQERAGVKMILIQDGSQNTNVDKPLRIIGDPYKVQQACEMVMDILRERDQGGFGDRNEYGSRIGGGIDVPVPRHSVGVVIGRSGEMIKKIQNDAGVRIQFKQDDGTGPEKIAHIMGPPDRCEHAARIINDLLQSLRSGPPGPPGGPGMPPGGRGRGRGQGNWGPPGGEMTFSIPTHKCGLVIGRGGENVKAINQQTGAFVEISRQLPPNGDPNFKLFIIRGSPQQIDHAKQLIEEKIEGPLCPVGPGPGGPGPAGPMGPFNPGPFNQGPPGAPPHAGGPPPHQYPPQGWGNTYPQWQPPAPHDPSKAAAAAADPNAAWAAYYSHYYQQPPGPVPGPAPAPAAPPAQGEPPQPPPTGQSDYTKAWEEYYKKIGQQPQQPGAPPQQDYTKAWEEYYKKQAQVATGGGPGAPPGSQPDYSAAWAEYYRQQAAYYGQTPGPGGPQPPPTQQGQQQAQ
B5: sp¦P46926¦GNPI1_HUMAN (protein, UniProt P46926 1-289, looked up)
Glucosamine-6-phosphate …: MKLIILEHYSQASEWAAKYIRNRIIQFNPGPEKYFTLGLPTGSTPLGCYKKLIEYYKNGDLSFKYVKTFNMDEYVGLPRDHPESYHSFMWNNFFKHIDIHPENTHILDGNAVDLQAECDAFEEKIKAAGGIELFVGGIGPDGHIAFNEPGSSLVSRTRVKTLAMDTILANARFFDGELTKVPTMALTVGVGTVMDAREVMILITGAHKAFALYKAIEEGVNHMWTVSAFQQHPRTVFVCDEDATLELKVKTVKYFKGLMLVHNKLVDPLYSIKEKETEKSQSSKKPYSD
B6: sp¦P29218¦IMPA1_HUMAN (protein, UniProt P29218 1-277, looked up)
Inositol monophosphatase 1: MADPWQECMDYAVTLARQAGEVVCEAIKNEMNVMLKSSPVDLVTATDQKVEKMLISSIKEKYPSHSFIGEESVAAGEKSILTDNPTWIIDPIDGTTNFVHRFPFVAVSIGFAVNKKIEFGVVYSCVEGKMYTARKGKGAFCNGQKLQVSQQEDITKSLLVTELGSSRTPETVRMVLSNMEKLFCIPVHGIRSVGTAAVNMCLVATGGADAYYEMGIHCWDVAGAGIIVTEAGGVLMDVTGGPFDLMSRRVIAANNRILAERIAKEIQVIPLQRDDED
B7: sp¦Q99436¦PSB7_HUMAN (protein, UniProt Q99436 44-277, looked up)
Proteasome subunit beta type-7: TTIAGVVYKDGIVLGADTRATEGMVVADKNCSKIHFISPNIYCCGAGTAADTDMTTQLISSNLELHSLSTGRLPRVVTANRMLKQMLFRYQGYIGAALVLGGVDVTGPHLYSIYPHGSTDKLPYVTMGSGSLAAMAVFEDKFRPDMEEEEAKNLVSEAIAAGIFNDLGSGSNIDLCVISKNKLDFLRPYTVPNKKGTRLGRYRCEKGTTAVLTEKITPLEIEVLEETVQTMDTS
B8: sp¦Q14019¦COTL1_HUMAN (protein, UniProt Q14019 2-142, looked up)
Coactosin-like protein: ATKIDKEACRAAYNLVRDDGSAVIWVTFKYDGSTIVPGEQGAEYQHFIQQCTDDVRLFAFVRFTTGDAMSKRSKFALITWIGENVSGLQRAKTGTDKTLVKEVVQNFAKEFVISDRKELEEDFIKSELKKAGGANYDAQTE
B9: sp¦P13667¦PDIA4_HUMAN (protein, UniProt P13667 21-645, looked up)
Protein disulfide-isomerase A4: VAGAEGPDEDSSNRENAIEDEEEEEEEDDDEEEDDLEVKEENGVLVLNDANFDNFVADKDTVLLEFYAPWCGHCKQFAPEYEKIANILKDKDPPIPVAKIDATSASVLASRFDVSGYPTIKILKKGQAVDYEGSRTQEEIVAKVREVSQPDWTPPPEVTLVLTKENFDEVVNDADIILVEFYAPWCGHCKKLAPEYEKAAKELSKRSPPIPLAKVDATAETDLAKRFDVSGYPTLKIFRKGRPYDYNGPREKYGIVDYMIEQSGPPSKEILTLKQVQEFLKDGDDVIIIGVFKGESDPAYQQYQDAANNLREDYKFHHTFSTEIAKFLKVSQGQLVVMQPEKFQSKYEPRSHMMDVQGSTQDSAIKDFVLKYALPLVGHRKVSNDAKRYTRRPLVVVYYSVDFSFDYRAATQFWRSKVLEVAKDFPEYTFAIADEEDYAGEVKDLGLSESGEDVNAAILDESGKKFAMEPEEFDSDTLREFVTAFKKGKLKPVIKSQPVPKNNKGPVKVVVGKTFDSIVMDPKKDVLIEFYAPWCGHCKQLEPVYNSLAKKYKGQKGLVIAKMDATANDVPSDRYKVEGFPTIYFAPSGDKKNPVKFEGGDRDLEHLSKFIEEHATKLSRTKEEL

The molecules below were run on human HL60 cells (assay: SWATH-MS proteomics, differential protein representation, akirin2 KO vs WT HL60 cells). Conditions: SWATH-MS, akirin2 KO vs WT HL60 cells; over-represented in KO.
Type: cell-based
Procedure, shortened: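 WT and akirin2 KO HL60 lysates (150 µg, n=3 biological replicates) were FASP trypsin-digested and desalted. A spectral library was built by IDA from 3 µg digests, then 5 µg per sample went to variable-window SWATH DIA over a 120-min 5–30% acetonitrile gradient. Identifications were accepted at 1% global FDR, with total-area-sum normalization.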

First: B1
Second: B2
The “Fold Change” value of the first is lower: 2.847 for the first, 2.923 for the second.

B1 and B2 are within 0.2 log units of each other in “Log (Fold Change)” value: 0.4544 for the first, 0.4659 for the second.

Same assay, conditions: akirin2 KO vs WT HL60 cells; sheet "Over-represented in KO"

Going from B3 to B4, the “Fold Change” value falls from 1.158 to 1.125.

First: B5
Second: B6
The “Fold Change” value of the first is higher: 1.154 for the first, 1.12 for the second.

First: B7
Second: B8
The “Fold Change” value of the first is higher: 1.138 for the first, 1.126 for the second.

B9 was tested, and the “Fold Change” value was 1.162.

B3 and B4 are within 0.2 log units of each other in “Log (Fold Change)” value: 0.06384 for the first, 0.05126 for the second.

B5 and B6 are within 0.2 log units of each other in “Log (Fold Change)” value: 0.06211 for the first, 0.04931 for the second.

B7 and B8 are within 0.2 log units of each other in “Log (Fold Change)” value: 0.056 for the first, 0.0517 for the second.

In the case of B9, the “Log (Fold Change)” value is reported as 0.06526.
